According to publication PMC6563288:

Biological target: VP1(289A)-Flag (enterovirus A71 (C4))
Test: co-IP

Vimentin (VIM) (from UniProt P08670 1-466) (natural protein)
fold VIM pulled down, against VP1(289T)-Flag: 1.6 fold
